Reference: paper PMC10530651, “Mechanisms of Regulation of the CHRDL1 Gene by the TWIST2 and ADD1/SREBP1c Transcription Factors”

T1: TWIST2 Q119X (Homo sapiens, UniProt Q8WVJ9 1-118)
T1 sequence: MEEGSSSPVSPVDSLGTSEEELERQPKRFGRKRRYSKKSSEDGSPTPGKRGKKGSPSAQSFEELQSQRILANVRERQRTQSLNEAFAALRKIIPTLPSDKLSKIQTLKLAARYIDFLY


Columns and labels:
TWIST2 Q119X [1] = biological target: T1, TWIST2 Q119X; experiment: EMSA; homodimer; EMSA: 20 mM HEPES pH 7.9, 60 mM KCl, 1 mM MgCl2, 0.5 mM DTT, 10% glycerol, 10 µL with 1-3 µL TnT lysate; competitor at least 50x molar excess; 6% native gel, 0.5X TBE, 4 °C; binding temperature not stated; conditions: protein: ivt; tags: Myc; chain copies: 2; label: 32P as probe; blunt
TWIST2 Q119X [2] = biological target: T1, TWIST2 Q119X; experiment: EMSA; EMSA: 20 mM HEPES pH 7.9, 60 mM KCl, 1 mM MgCl2, 0.5 mM DTT, 10% glycerol, 10 µL with 1-3 µL TnT lysate; competitor at least 50x molar excess; 6% native gel, 0.5X TBE, 4 °C; binding temperature not stated; conditions: protein: ivt; tags: Myc; chain copies: 2; label: 32P as probe; blunt

Row | Binder | binding result (TWIST2 Q119X [1]) | binding result (TWIST2 Q119X [2])
1 | CH2700EA (dsDNA) DNA 1: TGGTGGTGGTCACATGAATATACACATGCGATAAAATT DNA 2: AATTTTATCGCATGTGTATATTCATGTGACCACCACCA | no binding | –
2 | CH2600TWI (dsDNA) DNA 1: TATATACACAGGCAAATGAGTGCATATAAA DNA 2: TTTATATGCACTCATTTGCCTGTGTATATA | – | no binding
